# Reference: article PMC2194224
# Target: purified M22 (Sir22) protein (Streptococcus pyogenes)
# Test: radioligand binding
substance,measurement,value
human C4b-binding protein (C4BP) (from UniProt P04003 49-597; P20851 18-252) (complex),percent of radiolabeled ligand bound in the absence of antiserum,25%
